Assay results as given in patent US5541288A, “Peptide having elastase inhibitory activity and producing method thereof” (Nissin Shokuhin Kabushiki Kaisha, priority 1993, dated 1996).
Like-named read-outs stand apart in the source and are kept apart here. Each block holds one molecule with its values, some of them ahead of it.

Assays:
Format in all cases: biochemical
bovine pancreas trypsin = molecular target: T1, bovine pancreas trypsin (Bos taurus, UniProt P00760); test: Determination of Ki value against bovine pancreas trypsin (substrate Bz-DL-Arg-pNA); details: 30° C., pH 8.0
T1 construct: purchased Washington Biochemicals; host or cells: bovine pancreas
T1 sequence (P00760 24-246): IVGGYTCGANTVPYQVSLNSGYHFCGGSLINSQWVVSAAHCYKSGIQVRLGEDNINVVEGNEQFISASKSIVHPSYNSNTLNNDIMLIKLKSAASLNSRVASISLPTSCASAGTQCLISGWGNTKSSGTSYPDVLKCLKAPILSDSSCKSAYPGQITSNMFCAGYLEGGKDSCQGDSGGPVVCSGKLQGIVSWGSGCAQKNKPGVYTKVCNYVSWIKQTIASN
Description: Furthermore, the Ki value against trypsin was determined as follows.
Firstly, buffer containing 20 μl of 10 mM CaCl2, 50 mM Tris-HCl (pH 8.0) was mixed with 10 μl of test sample (1.2~6 μM) and 10 μl of 4.2 μM bovine pancreas trypsin solution (prepared by dissolving bovine pancreas trypsin in 1 mM HCl; Washington Biochemicals), and incubated at 30° C. for three minutes. 110 μl of 1M Tris-HCl (pH 8.0) buffer containing 100 mM CaCl2 was added to this solution, then 350 μl of any of 0.6 mM, 1.2 mM and 2.3 mM Bz-DL-Arg-pNA.HCl (Nakaraitesk) solution (containing 10% DMSO) was added, and reacted at 30° C. Change on absorbance at 405 nm over time was recorded, and the initial reaction velocity of the enzyme was determined therefrom. Then, the Ki value against trypsin was determined according to a procedure which was similar to the procedure for human neutrophil elastase above.

[1] = molecular target: T2, human neutrophil elastase (Homo sapiens, UniProt P08246); test: Determination of Ki value against human neutrophil elastase (fluorogenic substrate MeOSuc-Ala-Ala-Pro-Val-7AMC); details: 30° C., pH 7.5, purified peptides with recovered activity, read-out: Inhibitory Activity against Human Neutrophil Elastase Ki
T2 sequence (P08246 30-267): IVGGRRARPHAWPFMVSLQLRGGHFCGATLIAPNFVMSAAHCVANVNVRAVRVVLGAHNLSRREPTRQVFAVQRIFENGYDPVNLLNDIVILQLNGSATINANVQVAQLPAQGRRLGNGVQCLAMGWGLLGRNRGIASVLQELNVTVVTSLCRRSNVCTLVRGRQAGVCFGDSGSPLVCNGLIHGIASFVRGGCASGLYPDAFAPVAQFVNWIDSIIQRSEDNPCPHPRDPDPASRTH
Description: Determination of Ki value of the samples of purified peptides of Example 7 against human neutrophil elastase was accomplished as follows.
10 μl of solution of human neutrophil elastase (Attends Research), (the concentration of which was adjusted to 25 μM with the following buffer), and 10 μl of test sample (the concentration of which was appropriately adjusted) were added to buffer containing 30 μl of 100 mM Tris-HCl (pH 7.5), 500 mM NaCl, 0.01% BSA, and left for 20 minutes at 30° C. Then, 200 μl of MeOSuc-Ala-Ala-Pro-Val-7AMC solution (Cambridge Research Biochemicals) containing 1% dimethyl-sulfoxide (hereinafter referred to as "DMSO") was added to the mixture to adjust the concentration thereof to 0.2 mM, 0.3 mM and 0.4 mM, and reacted at 30° C. Fluorescence at 450 nm excited at 365 nm was measured over 0 to 3 minutes with a spectrophotofluorometer (F-3000, HITACHI), and an initial reaction velocity was calculated. Ki value was determined by preparing a graph having a vertical axis of the reciprocal of initial reaction velocity and a horizontal axis of sample concentration, and then plotting on the graph lines for each of the three substrate concentrations and reading the intersection point of the three lines so obtained.

[2] = molecular target: T2, human neutrophil elastase; test: Resistance against oxidizer: inhibitory rate against human neutrophil elastase after treatment with chloro-succinate-imide; details: for Inhibitory Rate against Human Neutrophil Elastase (%): amount of inhibitor 20 p mole
Description: 5 μl of peptide sample, the concentration of which was adjusted appropriately, was mixed with 5 μl of 5 mM chloro-succinate-imide [prepared by dissolving chloro-succinate-imide (Nakaraitesk) in 100 mM Tris-HCl (pH 7.5) buffer containing 500 mM NaCl], then left for 10 minutes at room temperature, and then treated with the oxidizer. Then, 5 μl of human neutrophil elastase, concentration of which was adjusted with said buffer, and 35 μl of said buffer were further added thereto, and left for 15 minutes at 30° C. 450 μl of MeOSuc-Ala-Ala-Pro-Val-pNA (Cambridge Research Bio-Chemicals) solution (containing 1% DMSO), the concentration of which was adjusted to 0.1 mM with said buffer, was added thereto and further reacted for 30 minutes at 30° C. 40 μl of acetic acid was added and absorbance at 405 nm was measured. An inhibition against an activity of human neutrophil elastase in the samples treated with the oxidizer was indicated as an inhibitory rate (%) calculated by the following formula. [formula] A: Absorbance obtained from sample not containing inhibitor. B: Absorbance obtained from sample containing inhibitor.

- Ki (bovine pancreas trypsin): 360 nM
- Ki ([1]; listed as HI-8): ~690 nM
- Ki [1]: 690 nM
Molecule: R15: Recombinant HI-8 peptide (C-terminal domain Thr78-Leu143 of UTI) expressed by using the plasmid pCD17R15

- Inhibitory Rate against Human Neutrophil Elastase (%) ([2]; chloro-succinate-imide 0 mM): 72%
- Inhibitory Rate against Human Neutrophil Elastase (%) ([2]; chloro-succinate-imide 2.5 mM): 5%
- Ki (bovine pancreas trypsin): 920 nM
- Ki [1]: 120 nM
B1: Ulinastatin (protein, UniProt P02760 206-352, looked up)
Inter-alpha-trypsin inhibitor …: AVLPQEEEGSGGGQLVTEVTKKEDSCQLGYSAGPCMGMTSRYFYNGTSMACETFQYGGCMGNGNNFVTEKECLQTCRTVAACNLPIVRGPCRAFIQLWAFDAVKGKCVLFPYGGCQGNGNKFYSEKECREYCGVPGDGDEELLRFSN
modifications: Inter-alpha-trypsin inhibitor light chain
- inhibitory activity against human neutrophil elastase under oxidizing conditions (in words) ([2]; treated with oxidizer chloro-succinate-imide): oxidized and inactivated completely
